Measured values taken from IntAct's records for PubMed 18202720.

B1: Type-1 angiotensin II receptor A (Rattus norvegicus (Rat)), P25095 (parent)
chain: MALNSSAEDGIKRIQDDCPKAGRHSYIFVMIPTLYSIIFVVGIFGNSLVVIVIYFYMKLKTVASVFLLNLALADLCFLLTLPLWAVYTAMEYRWPFGNHLCKIASASVSFNLYASVFLLTCLSIDRYLAIVHPMKSRLRRTMLVAKVTCIIIWLMAGLASLPAVIHRNVYFIENTNITVCAFHYESRNSTLPIGLGLTKNILGFLFPFLIILTSYTLIWKALKKAYEIQKNKPRNDDIFRIIMAIVLFFFFSWVPHQIFTFLDVLIQLGVIHDCKISDIVDTAMPITICIAYFNNCLNPLFYGFLGKKFKKYFLQLLKYIPPKAKSHSSLSTKMSTLSYRPSDNMSSSAKKPASCFEVE

Variants of: B1
Conditions: with angt_human AGT

effect of a mutation on the interaction	Variant
decreasing interaction	MALNSSAEDGIKRIQDDCPKAGRHSYIFVMIPTLYSIIFVVGIFGNSLVVIVIYFYMKLKTVASVFLLNLALADLAFLLTLPLWAVYTAMEYRWPFGNHLCKIASASVSFNLYASVFLLTCLSIDRYLAIVHPMKSRLRRTMLVAKVTCIIIWLMAGLASLPAVIHRNVYFIENTNITVCAFHYESRNSTLPIGLGLTKNILGFLFPFLIILTSYTLIWKALKKAYEIQKNKPRNDDIFRIIMAIVLFFFFSWVPHQIFTFLDVLIQLGVIHDCKISDIVDTAMPITICIAYFNNALNPLFYGFLGKKFKKYFLQLLKYIPPKAKSHSSLSTKMSTLSYRPSDNMSSSAKKPASCFEVE [C76A;C296A]

Variants of: B1
Conditions: with angt_human AGT
Remark: another data set of the same source

effect of a mutation on the interaction	Variant
decreasing interaction	MALNSSAEDGIKRIQDDCPKAGRHSYIFVMIPTLYSIIFVVGIFGNSLVVIVIYFYMKLKTVASVFLLNLALADLCFLLTLPLWAVYTAMEYRWPFGNHLCKIASASVSFNLYASVFLLTCLSIDRYLAIVHPMKSRLRRTMLVAKVTCIIIWLMAGLASLPAVIHRNVYFIENTNITVCAFHYESRNSTLPIGLGLTKNILGFLFPFLIILTSYTLIWKALKKAYEIQKNKPRNDDIFRIIMAIVLFFFFSWVPHQIFTFLDVLIQLGVIHDCKISDIVDTAMPITICIAYFNCCLNPLFYGFLGKKFKKYFLQLLKYIPPKAKSHSSLSTKMSTLSYRPSDNMSSSAKKPASCFEVE [N295C]
decreasing interaction	MALNSSAEDGIKRIQDDCPKAGRHSYIFVMIPTLYSIIFVVGIFGNSLVVIVIYFYMKLKTVASVFLLNLALADLAFLLTLPLWAVYTAMEYRWPFGNHLCKIASASVSFNLYASVFLLTCLSIDRYLAIVHPMKSRLRRTMLVAKVTCIIIWLMAGLASLPAVIHRNVYFIENTNITVCAFHYESRNSTLPIGLGLTKNILGFLFPFLIILTSYTLIWKALKKAYEIQKNKPRNDDIFRIIMAIVLFFFFSWVPHQIFTFLDVLIQLGVIHDCKISDIVDTAMPITIAIAYFNNCLNPLFYGFLGKKFKKYFLQLLKYIPPKAKSHSSLSTKMSTLSYRPSDNMSSSAKKPASCFEVE [C76A;C289A]

Variants of: B1
Conditions: with angt_human AGT
Remark: another data set of the same source

effect of a mutation on the interaction	Variant
decreasing interaction	MALNSSAEDGIKRIQDDCPKAGRHSYIFVMIPTLYSIIFVVGIFGNSLVVIVIYFYMKLKTVASVFLLNLALADLCFLLTLPLWAVYTAMEYRWPFGNHLCKIASASVSFNLYASVFLLTCLSIDRYLAIVHPMKSRLRRTMLVAKVTCIIIWLMAGLASLPAVIHRNVYFIENTNITVCAFHYESRNSTLPIGLGLTKNILGFLFPFLIILTSYTLIWKALKKAYEIQKNKPRNDDIFRIIMAIVLFFFFSWVPHQIFTFLDVLIQLGVIHDCKISDIVDTAMPITICIAAFNNCLNPLFYGFLGKKFKKYFLQLLKYIPPKAKSHSSLSTKMSTLSYRPSDNMSSSAKKPASCFEVE [Y292A]

Variants of: B1
Conditions: with angt_human AGT
Remark: another data set of the same source

effect of a mutation on the interaction	Variant
decreasing interaction	MALNSSAEDGIKRIQDDCPKAGRHSYIFVMIPTLYSIIFVVGIFGNSLVVIVIYFYMKLKTVASVFLLNLALADLAFLLTLPLWAVYTAMEYRWPFGNHLCKIASASVSFNLYASVFLLTCLSIDRYLAIVHPMKSRLRRTMLVAKVTCIIIWLMAGLASLPAVIHRNVYFIENTNITVCAFHYESRNSTLPIGLGLTKNILGFLFPFLIILTSYTLIWKALKKAYEIQKNKPRNDDIFRIIMAIVLFFFFSWVPHQIFTFLDVLIQLGVIHDCKISDIVDTAMPITIAIAYFNNALNPLFYGFLGKKFKKYFLQLLKYIPPKAKSHSSLSTKMSTLSYRPSDNMSSSAKKPASCFEVE [C76A;C289A;C296A]

Variants of: B1
Conditions: with angt_human AGT
Remark: another data set of the same source

effect of a mutation on the interaction	Variant
decreasing interaction	MALNSSAEDGIKRIQDDCPKAGRHSYIFVMIPTLYSIIFVVGIFGNSLVVIVIYFYMKLKTVASVFLLNLALADLAFLLTLPLWAVYTAMEYRWPFGNHLCKIASASVSFNLYASVFLLTCLSIDRYLAIVHPMKSRLRRTMLVAKVTCIIIWLMAGLASLPAVIHRNVYFIENTNITVCAFHYESRNSTLPIGLGLTKNILGFLFPFLIILTSYTLIWKALKKAYEIQKNKPRNDDIFRIIMAIVLFFFFSWVPHQIFTFLDVLIQLGVIHDCKISDIVDTAMPITIAIAYFNNCLNPLFYGFLGKKFKKYFLQLLKYIPPKAKSHSSLSTKMSTLSYRPSDNMSSSAKKPASCFEVE [C76A;C289A]

Variants of: B1
Conditions: with angt_human AGT
Remark: another data set of the same source

effect of a mutation on the interaction	Variant
increasing interaction	MALNSSAEDGIKRIQDDCPKAGRHSYIFVMIPTLYSIIFVVGIFGNSLVVIVIYFYMKLKTVASVFLLNLALADLAFLLTLPLWAVYTAMEYRWPFGNHLCKIASASVSFNLYASVFLLTCLSIDRYLAIVHPMKSRLRRTMLVAKVTCIIIWLMAGLASLPAVIHRNVYFIENTNITVCAFHYESRNSTLPIGLGLTKNILGFLFPFLIILTSYTLIWKALKKAYEIQKNKPRNDDIFRIIMAIVLFFFFSWVPHQIFTFLDVLIQLGVIHDCKISDIVDTAMPITIAIAYFNNCLNPLFYGFLGKKFKKYFLQLLKYIPPKAKSHSSLSTKMSTLSYRPSDNMSSSAKKPASCFEVE [C76A;C289A]
increasing interaction	MALNSSAEDGIKRIQDDCPKAGRHSYIFVMIPTLYSIIFVVGIFGNSLVVIVIYFYMKLKTVASVFLLNLALADLCFLLTLPLWAVYTAMEYRWPFGNHLCKIASASVSFNLYASVFLLTCLSIDRYLAIVHPMKSRLRRTMLVAKVTCIIIWLMAGLASLPAVIHRNVYFIENTNITVCAFHYESRNSTLPIGLGLTKNILGFLFPFLIILTSYTLIWKALKKAYEIQKNKPRNDDIFRIIMAIVLFFFFSWVPHQIFTFLDVLIQLGVIHDCKISDIVDTAMPITICIAYFCNCLNPLFYGFLGKKFKKYFLQLLKYIPPKAKSHSSLSTKMSTLSYRPSDNMSSSAKKPASCFEVE [N294C]

Variants of: B1
Conditions: with angt_human AGT
Remark: another data set of the same source

effect of a mutation on the interaction	Variant
decreasing interaction	MALNSSAEDGIKRIQDDCPKAGRHSYIFVMIPTLYSIIFVVGIFGNSLVVIVIYFYMKLKTVASVFLLNLALADLCFLLTLPLWAVYTAMEYRWPFGNHLCKIASASVSFNLYASVFLLTCLSIDRYLAIVHPMKSRLRRTMLVAKVTCIIIWLMAGLASLPAVIHRNVYFIENTNITVCAFHYESRNSTLPIGLGLTKNILGFLFPFLIILTSYTLIWKALKKAYEIQKNKPRNDDIFRIIMAIVLFFFFSWVPHQIFTFLDVLIQLGVIHDCKISDIVDTAMPIAICIAYFNNCLNPLFYGFLGKKFKKYFLQLLKYIPPKAKSHSSLSTKMSTLSYRPSDNMSSSAKKPASCFEVE [T287A]

Variants of: B1
Conditions: with angt_human AGT
Remark: another data set of the same source

effect of a mutation on the interaction	Variant
decreasing interaction	MALNSSAEDGIKRIQDDCPKAGRHSYIFVMIPTLYSIIFVVGIFGNSLVVIVIYFYMKLKTVASVFLLNLALADLCFLLTLPLWAVYTAMEYRWPFGNHLCKIASASVSFNLYASVFLLTCLSIDRYLAIVHPMKSRLRRTMLVAKVTCIIIWLMAGLASLPAVIHRNVYFIENTNITVCAFHYESRNSTLPIGLGLTKNILGFLFPFLIILTSYTLIWKALKKAYEIQKNKPRNDDIFRIIMAIVLFFFFSWVPHAIFTFLDVLIQLGVIHDCKISDIVDTAMPITICIAYFNNCLNPLFYGFLGKKFKKYFLQLLKYIPPKAKSHSSLSTKMSTLSYRPSDNMSSSAKKPASCFEVE [Q257A]

Variants of: B1
Conditions: with angt_human AGT
Remark: another data set of the same source

effect of a mutation on the interaction	Variant
decreasing interaction	MALNSSAEDGIKRIQDDCPKAGRHSYIFVMIPTLYSIIFVVGIFGNSLVVIVIYFYMKLKTVASVFLLNLALADLCFLLTLPLWAVYTAMEYRWPFGNHLCKIASASVSFNLYASVFLLTCLSIDRYLAIVHPMKSRLRRTMLVAKVTAIIIWLMAGLASLPAVIHRNVYFIENTNITVCAFHYESRNSTLPIGLGLTKNILGFLFPFLIILTSYTLIWKALKKAYEIQKNKPRNDDIFRIIMAIVLFFFFSWVPHQIFTFLDVLIQLGVIHDCKISDIVDTAMPITICIAYFNNCLNPLFYGFLGKKFKKYFLQLLKYIPPKAKSHSSLSTKMSTLSYRPSDNMSSSAKKPASCFEVE [C149A]
